# Key:
# Kv2.1/syntaxin binding = biological target: T1, Kv2.1/syntaxin binding (Homo sapiens, UniProt Q16623); assay: Co-immunoprecipitation of Kv2.1 with syntaxin from transfected CHO cells; format: cell-based; settings: for effect on Kv2.1/syntaxin binding (co-immunoprecipitation): syntaxin-expressing CHO cells co-transfected with Kv2.1 and peptide plasmid, syntaxin immunoprecipitates probed for Kv2.1
# T1 construct: expressed in transfected cells; host or cells: CHO cells
# Protocol: For electrophysiological experiments, mixed cortical neuronal/glial cultures were prepared from embryonic day 16 (E16) Sprague-Dawley rats (Charles River Laboratories, Wilmington, Mass., USA). Donor rats were euthanized by gradual CO2 exposure. Cortices were dissociated with trypsin, and the resultant cell suspension, adjusted to 670,000 cells per well, was plated on glass coverslips in 6-well plates as described previously (Hartnett et al., J Neurochem 68, 1836-1845, 1997). Non-neuronal cell proliferation was inhibited after two weeks in culture with 1-2 μM cytosine arabinoside, and cultures utilized at three to four weeks in vitro. For neuronal transfection, cells were treated for five hours in serum-free medium with 2 μL LIPOFECTAMINE™ 2000 (Invitrogen, Carlsbad, Calif.), 50 μL Optimem (GIBCO, Grand Island, N.Y.), and 1.5 μg DNA per well. For CHO cell transfections, cells were plated on coverslips in 24-well plates at a density of 5.6×10^4 cells per well for electrophysiological measurements or in 100 mm dishes at a density of 1.7×10^6 cells per dish for biochemical studies. Cells were treated for 3-4 hours in serum-free medium with a total of 1.2 μL LIPOFECTAMINE™ and 0.28 μg DNA per well for electrophysiology, or 55.1 μL LIPOFECTAMINE™ and 7.33 μg DNA per dish for biochemistry. Following transfection, cells were maintained in F12 medium containing fetal bovine serum at 37° C., 5% CO2 for 24 hours prior to experimentation.
# Protein was harvested by washing cell culture dishes with ice cold PBS followed by a short incubation with 1% 3-[(3-cholamidopropyl) dimethylammonio]-1-propanesulfonate buffer. Protein A/G agarose bead slurry (Santa Cruz, Dallas, Tex.) was added to the samples and rocked at 4° C. for 1 hour in order to pre-clear non-specific protein binding. Samples were then incubated overnight at 4° C. with the appropriate immunoprecipitating antibodies. Following another incubation with the bead slurry, the protein samples were prepared/denatured by the addition of sample preparation buffer (625 mM Tris, 25% glycerol, 2% sodium dodecyl sulfate (SDS), 0.01% bromophenol blue and 5% β-mercaptoethanol) and heated at 95° C. for 5 min prior to SDS polyacrylamide gel electrophoresis and immunoblotting.
# Protein samples from equal amounts of cell lysate were separated on 10% sodium dodecyl sulfate SDS polyacrylamide gels by electrophoresis using the Mini Protean 3 System (Bio-Rad, Hercules, Calif.). Separated protein bands were transferred onto 0.2 μm nitrocellulose membranes (Bio-Rad), blocked with 1% bovine serum albumin (BSA) in PBS with 0.05% Tween 20 (PBST) at room temperature for 1 hour, and probed with appropriate primary antibodies diluted in PBST. Blots were then incubated with infrared fluorescent goat secondary antibodies at room temperature for 1 hour, visualized using the Odyssey Imaging System (LI-COR Biosciences, Lincoln, Nebr.), and quantified using infrared fluorimetry.
# After establishing that C1a effectively precluded the oxidant-induced K^+ current increase in neurons, studies were performed to identify the sub-domains within C1a that could retain the ability to disrupt Kv2.1/syntaxin binding. C1a was divided into overlapping proximal and distal segments, hereafter referred to as C1a411-472 and C1a441-522, respectively. Co-immunoprecipitation experiments were performed to compare the ability of C1a and the smaller segments to displace Kv2.1 from syntaxin. Syntaxin immunoprecipitates of protein samples obtained from CHO cells transfected with a syntaxin-expressing plasmid, and co-transfected with Kv2.1 together with C1a, C1a411-472, or C1a441-522, were probed for Kv2.1.
# human syntaxin = biological target: T2, human syntaxin (Homo sapiens, UniProt Q16623); assay: Far-Western analysis of syntaxin binding to SPOT peptide arrays; settings: for syntaxin binding inferred from the overlapping peptide array: sequence deduced from or picked out of the 15-mer array, not spotted itself; for syntaxin binding to spotted peptide (fluorescence intensity): 15-mer peptides on PVDF membrane, human syntaxin over-expressing CHO cell lysate, four arrays
# T2 construct: expressed in transfected cells; host or cells: CHO cells (lysate)
# Protocol: FIG. 8: Binding of Kv2.1 peptides to syntaxin. The 76 overlapping Kv2.1 peptides were spot-plated as an array onto a polyvinylidene fluoride membrane using the SPOTS-synthesis method. Membranes were incubated with a human syntaxin over-expressing CHO cell lysate and a far-Western analysis of syntaxin binding to the peptide arrays was performed using a commercially available syntaxin antibody and fluorescently tagged secondary antibody. Fluorescence intensity was quantified as an index of syntaxin binding to the spot array. Bars represent the mean+/−SEM of binding in four independent arrays. […]
# T1 sequence (Q16623 whole entry): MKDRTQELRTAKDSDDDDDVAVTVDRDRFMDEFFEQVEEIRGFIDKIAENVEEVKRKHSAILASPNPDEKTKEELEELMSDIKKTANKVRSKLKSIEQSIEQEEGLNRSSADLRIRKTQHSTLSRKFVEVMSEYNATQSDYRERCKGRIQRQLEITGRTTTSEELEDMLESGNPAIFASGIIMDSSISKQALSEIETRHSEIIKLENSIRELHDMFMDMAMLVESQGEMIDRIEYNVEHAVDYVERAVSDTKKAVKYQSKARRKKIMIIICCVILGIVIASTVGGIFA
# T2 sequence (Q16623 whole entry): as above
Molecule,effect on Kv2.1/syntaxin binding (co-immunoprecipitation) (Kv2.1/syntaxin binding),syntaxin binding inferred from the overlapping peptide array (human syntaxin),syntaxin binding to spotted peptide (fluorescence intensity) (human syntaxin),also measured
"C1a441-472: overlapping middle segment of C1a, residues 441-472 of rat Kv2.1 (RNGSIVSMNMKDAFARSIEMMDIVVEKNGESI; UniProt P15387 441-472, looked up, fragment)",had no effect on syntaxin's ability to bind to Kv2.1,,,"mean±SEM ratio of Kv2.1 to syntaxin immunoblots (Kv2.1/syntaxin binding; CHO cells, n=3, baseline=0.24±0.08): 0.25±0.1"
DIVVEEKNGE (DIVVEKNGE; listed as Rattus norvegicus) [reference compound],,non-syntaxin-binding,,
HLSPNKWKW (listed as Rattus norvegicus),,represents the syntaxin-binding domain,,
"peptide #22: 15-mer, residues 472-486 of SEQ ID NO: 3 (DKVQDNHLSPNKWKW; listed as Rattus norvegicus)",,,initial peptide showing substantial binding,
"peptide #28: 15-mer, residues 478-492 of SEQ ID NO: 3 (HLSPNKWKWTKRALS; listed as Rattus norvegicus)",,,final peptide showing substantial binding,
"C1a411-472: proximal segment of C1a, residues 411-472 of rat Kv2.1 (protein, UniProt P15387 411-472, looked up, fragment) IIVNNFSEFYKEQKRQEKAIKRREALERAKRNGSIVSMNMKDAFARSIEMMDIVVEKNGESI",did not,,,

# Source: US9932382B2, “Kv2.1 channel-derived peptides and methods of use” (University of Pittsburgh—Of the Commonwealth System of …, priority 2014, dated 2018)
